Target: cleaved human TNFα (human)
Assay: SEC; SEC-HPLC on an analytic TSK G3000SWXL column, PBS mobile phase, 1 ml/min, OD280; molecular weight estimated from retention time against a protein size standard; self-association (trimer)

- stoichiometry N: 3
Substance: cleaved human TNFα (ligand)
